# Measured values: patent US20220227870A1 (Innovent, published 2022)
# Like-named read-outs stand apart in the source and are kept apart here.
# B1: anti-LAG-3/PD-L1 bispecific antibody Kh2NF-PL (bispecific antibody, human IgG1, kappa, L234A L235A)
# heavy: not shown
# light: not shown
# chain: QVQLQESGGGLVQPGGSLRLSCAASAYTISRNSMGWFRQAPGKGLEGVAAIESDGSTSYSDSVKGRFTISLDNSKNTLYLEMNSLRAEDTAVYYCAAPKVGLGPRTALGHLAFMTLPALNYWGQGTLVTVSSQVQLQESGGGLVQPGGSLRLSCAASAYTISRNSMGWFRQAPGKGLEGVAAIESDGSTSYSDSVKGRFTISLDNSKNTLYLEMNSLRAEDTAVYYCAAPKVGLGPRTALGHLAFMTLPALNYWGQGTLVTVSSDKTHTCPPCPAPEAAGGPSVFLFPPKPKDTLMISRTPEVTCVVVDVSHEDPEVKFNWYVDGVEVHNAKTKPREEQYNSTYRVVSVLTVLHQDWLNGKEYKCKVSNKALPAPIEKTISKAKGQPREPQVCTLPPSRDELTKNQVSLSCAVKGFYPSDIAVEWESNGQPENNYKTTPPVLDSDGSFFLVSKLTVDKSRWQQGNVFSCSVMHEALHNHYTQKSLSLSPG
# notes: Triple-chain antibody; Fc with LALA and knob-in-hole mutations
# B2: anti-CD47/PD-L1 bispecific antibody Kh2NF-PC (bispecific antibody, human IgG1, kappa, L234A L235A)
# heavy: not shown
# light: DIQMTQSPSSVSASVGDRVTITCRASQGISRWLAWYQQKPGKAPKLLIYAASSLQSGVPSRFSGSGSGTDFTLTISSLQPEDFATYYCQQTVSFPITFGGGTKVEIKRTVAAPSVFIFPPSDEQLKSGTASVVCLLNNFYPREAKVQWKVDNALQSGNSQESVTEQDSKDSTYSLSSTLTLSKADYEKHKVYACEVTHQGLSSPVTKSFNRGEC
# chain: QVQLQESGGGLVQPGGSLRLSCAASAYTISRNSMGWFRQAPGKGLEGVAAIESDGSTSYSDSVKGRFTISLDNSKNTLYLEMNSLRAEDTAVYYCAAPKVGLGPRTALGHLAFMTLPALNYWGQGTLVTVSSGGGGSGGGGSGGGGSGGGGSQVQLQESGGGLVQPGGSLRLSCAASAYTISRNSMGWFRQAPGKGLEGVAAIESDGSTSYSDSVKGRFTISLDNSKNTLYLEMNSLRAEDTAVYYCAAPKVGLGPRTALGHLAFMTLPALNYWGQGTLVTVSSDKTHTCPPCPAPEAAGGPSVFLFPPKPKDTLMISRTPEVTCVVVDVSHEDPEVKFNWYVDGVEVHNAKTKPREEQYNSTYRVVSVLTVLHQDWLNGKEYKCKVSNKALPAPIEKTISKAKGQPREPQVCTLPPSRDELTKNQVSLSCAVKGFYPSDIAVEWESNGQPENNYKTTPPVLDSDGSFFLVSKLTVDKSRWQQGNVFSCSVMHEALHNHYTQKSLSLSPG
# notes: Triple-chain antibody (1+2 format)
# B3: anti-CD47/PD-L1 bispecific antibody Kh2NF-PC-NL (bispecific antibody, human IgG1, kappa, L234A L235A)
# heavy: not shown
# light: DIQMTQSPSSVSASVGDRVTITCRASQGISRWLAWYQQKPGKAPKLLIYAASSLQSGVPSRFSGSGSGTDFTLTISSLQPEDFATYYCQQTVSFPITFGGGTKVEIKRTVAAPSVFIFPPSDEQLKSGTASVVCLLNNFYPREAKVQWKVDNALQSGNSQESVTEQDSKDSTYSLSSTLTLSKADYEKHKVYACEVTHQGLSSPVTKSFNRGEC
# chain: QVQLQESGGGLVQPGGSLRLSCAASAYTISRNSMGWFRQAPGKGLEGVAAIESDGSTSYSDSVKGRFTISLDNSKNTLYLEMNSLRAEDTAVYYCAAPKVGLGPRTALGHLAFMTLPALNYWGQGTLVTVSSQVQLQESGGGLVQPGGSLRLSCAASAYTISRNSMGWFRQAPGKGLEGVAAIESDGSTSYSDSVKGRFTISLDNSKNTLYLEMNSLRAEDTAVYYCAAPKVGLGPRTALGHLAFMTLPALNYWGQGTLVTVSSDKTHTCPPCPAPEAAGGPSVFLFPPKPKDTLMISRTPEVTCVVVDVSHEDPEVKFNWYVDGVEVHNAKTKPREEQYNSTYRVVSVLTVLHQDWLNGKEYKCKVSNKALPAPIEKTISKAKGQPREPQVCTLPPSRDELTKNQVSLSCAVKGFYPSDIAVEWESNGQPENNYKTTPPVLDSDGSFFLVSKLTVDKSRWQQGNVFSCSVMHEALHNHYTQKSLSLSPG
# notes: Triple-chain antibody without a linker between the two VHH; Fc with LALA and knob-in-hole mutations
# B4: anti-4-1BB/PD-L1 bispecific antibody Kh2NF-P4 (bispecific antibody, human IgG1, kappa, L234A L235A)
# heavy: not shown
# light: not shown
# chain: QVQLQESGGGLVQPGGSLRLSCAASAYTISRNSMGWFRQAPGKGLEGVAAIESDGSTSYSDSVKGRFTISLDNSKNTLYLEMNSLRAEDTAVYYCAAPKVGLGPRTALGHLAFMTLPALNYWGQGTLVTVSSGGGGSGGGGSGGGGSGGGGSQVQLQESGGGLVQPGGSLRLSCAASAYTISRNSMGWFRQAPGKGLEGVAAIESDGSTSYSDSVKGRFTISLDNSKNTLYLEMNSLRAEDTAVYYCAAPKVGLGPRTALGHLAFMTLPALNYWGQGTLVTVSSDKTHTCPPCPAPEAAGGPSVFLFPPKPKDTLMISRTPEVTCVVVDVSHEDPEVKFNWYVDGVEVHNAKTKPREEQYNSTYRVVSVLTVLHQDWLNGKEYKCKVSNKALPAPIEKTISKAKGQPREPQVCTLPPSRDELTKNQVSLSCAVKGFYPSDIAVEWESNGQPENNYKTTPPVLDSDGSFFLVSKLTVDKSRWQQGNVFSCSVMHEALHNHYTQKSLSLSPG
# notes: as for B1
# B5: IgG1 Control (antibody, V domains shown)
# VH: EVRLLESGGGLVQPGGSLRLSCAASGFTFSNYAMGWVRQAPGKGLEWVSAISGSGGSTYYADSVKGRFTTSRDDSKNALYLQMNSLRAEDTAVYYCARGGPGWYAADVWGQGTTVTVSS
# VL: DIQMTQSPSSLSASVGDRVTITCRASQSISSYLNWYQQKPGKAPKLLIYAASSLQSGVPSRFSGSGSGTDFTLTISSLQPEDFATYYCQQADLPAFAFGGGTKVEIKR
# notes: also called IgG1 negative control antibody
# B6: anti-4-1BB antibody BMS-663513 (antibody, V domains shown)
# VH: QVQLQQWGAGLLKPSETLSLTCAVYGGSFSGYYWSWIRQSPEKGLEWIGEINHGGYVTYNPSLESRVTISVDTSKNQFSLKLSSVTAADTAVYYCARDYGPGNYDWYFDLWGRGTLVTVSS
# VL: EIVLTQSPATLSLSPGERATLSCRASQSVSSYLAWYQQKPGQAPRLLIYDASNRATGIPARFSGSGSGTDFTLTISSLEPEDFAVYYCQQRSNWPPALTFGGGTKVEIK
# notes: also called parent antibody (anti-4-1BB)
# B7: anti-LAG-3 antibody ADI-31853 (antibody, V domains shown)
# VH: QLQLQESGPGLVKPSETLSLTCTVSGGSIYSESYYWGWIRQPPGKGLEWIGSIVYSGYTYYNPSLKSRVTISVDTSKNQFSLKLSSVTAADTAVYYCARVRTWDAAFDIWGQGTMVTVSS
# VL: DIQMTQSPSSLSASVGDRVTITCQASQDISNYLNWYQQKPGKAPKLLIYDASNLETGVPSRFSGSGSGTDFTFTISSLQPEDIATYYCQQVLELPPWTFGGGTKVEIK
# notes: also called parent antibody (anti-LAG-3)
# Key:
# [1] = target: T1, human PD-L1 expressed on the surface of cells (CHO-S-PD-L1 cells) (human, UniProt Q9NZQ7 19-290); assay: FACS on CHO-S cells overexpressing human PD-L1, PE-conjugated anti-human Fc detection, MFI
# T1 construct: whole, on cells; also called CHO-S cells overexpressing PD-L1; PD-L1 aAPC/CHO-K1 cells
# Procedure: (§1) In short, CHO-S-PD-L1 cells were counted, and the cell suspension was diluted to 1×10⁶ cells/ml with cell medium, and then added to a U-bottom 96-well plate at 100 μl/well. The cell suspension was centrifuged at 400 g on a centrifuge for 5 minutes to remove the cell medium. […] The cell suspension was centrifuged at 400 g for 5 minutes, and then the supernatant was removed, and the cells were washed with PBS to remove the unbound antibodies. The obtained cell suspension was centrifuged at 400 g for 5 min to remove PBS. 100 μl of the solution of PE-conjugated anti-human Fc antibody (Jackson Immuno Research) diluted at a ratio of 1:200 was added to each well, and the cells were incubated in the dark on the ice for 30 min. Then the cell suspension was centrifuged at 400 g for 5 min and the supernatant was removed. The cells were washed with PBS to remove the unbound PE-conjugated anti-human Fc antibody. The cells were resuspended with 100 μl of PBS, and the binding of the antibodies to cells was assayed by FACS.
# [2] = target: T2, human LAG-3 expressed on the surface of cells (293-LAG-3 cells) (human, UniProt P18627 23-525); assay: FACS on HEK293 cells overexpressing human LAG-3, PE-conjugated anti-human Fc detection, MFI
# T2 construct: whole, on cells; also called HEK293 cells overexpressing LAG-3; CD223
# T2 sequence (looked up): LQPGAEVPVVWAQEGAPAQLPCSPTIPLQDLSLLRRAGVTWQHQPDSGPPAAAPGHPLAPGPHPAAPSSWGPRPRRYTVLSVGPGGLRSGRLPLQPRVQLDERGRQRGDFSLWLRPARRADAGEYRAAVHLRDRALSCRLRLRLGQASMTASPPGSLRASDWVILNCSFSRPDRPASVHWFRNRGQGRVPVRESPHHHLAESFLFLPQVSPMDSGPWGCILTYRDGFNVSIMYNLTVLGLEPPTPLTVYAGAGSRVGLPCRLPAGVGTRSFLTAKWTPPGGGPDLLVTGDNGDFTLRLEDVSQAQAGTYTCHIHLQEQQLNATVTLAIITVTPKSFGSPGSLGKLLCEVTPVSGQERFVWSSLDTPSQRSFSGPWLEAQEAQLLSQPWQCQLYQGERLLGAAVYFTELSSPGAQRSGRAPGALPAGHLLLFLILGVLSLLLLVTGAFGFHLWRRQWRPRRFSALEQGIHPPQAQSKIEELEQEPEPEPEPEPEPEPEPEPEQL
# [3] = target: T3, tumor cells H292 (ATCC), co-incubated with human red blood cells; assay: flow cytometry; CFSE-labelled H292 cells co-incubated 1:20 with human red blood cells; antibody 0.041 nM
# T3 construct: also called H292 cells
# Procedure: (§2) Tumor cells H292 (ATCC) were fluorescently labeled with fluorochrome CFSE according to the instructions of CellTrace™ CFSE Cell Proliferation Kit (Invitrogen, catalog number: C34554). The labeled tumor cells were co-cultured with the aforementioned isolated human red blood cells at a ratio of 1:20 in terms of cell number, and meanwhile, tested antibody solutions of different concentrations were added. The cells were incubated at 4° C. for 30 min. […] The cells were washed at least twice with PBS and analyzed by flow cytometry.
# [4] = target: T4, human CD47 expressed on the surface of cells (CHO-S-CD47 cells) (human, UniProt Q08722 19-323); assay: FACS on CHO-S cells overexpressing human CD47; antibody sample of day 0
# T4 construct: whole, on cells; also called CHO-S cells overexpressing CD47; CHO-CD47
# [5] = target: T3, tumor cells H292 (ATCC), co-incubated …; assay: flow cytometry; CFSE-labelled H292 cells co-incubated 1:20 with human red blood cells; antibody 3.333 nM
# Procedure: (§3) The mixture was then gently added to 4 tubes each with 12.5 ml of FiColl (Thermo). The samples were centrifuged at 400 g for 30 min with zero deceleration. The upper serum and PBMC were removed to obtain red blood cells in the lowest layer.
# as §2
# [6] = target: T3, tumor cells H292 (ATCC), co-incubated …; assay: flow cytometry; CFSE-labelled H292 cells co-incubated 1:20 with human red blood cells; antibody 10.000 nM
# Procedure: as §3, §2
# [7] = target: T4, human CD47 expressed on the surface of …; assay: FACS on CHO-S cells overexpressing human CD47; antibody sample after 30 days at 40 C
# Procedure: (§4) The cell suspension was centrifuged at 400 g on a centrifuge for 5 minutes to remove the cell medium. […] The cell suspension was centrifuged at 400 g for 5 minutes, and then the supernatant was removed, and the cells were washed with PBS to remove the unbound antibodies. The obtained cell suspension was centrifuged at 400 g for 5 minutes to remove PBS. 100 μL of the solution of PE-conjugated anti-human Fc antibody (Jackson Immuno Research) diluted at a ratio of 1:200 was added to each well, and the cells were incubated in the dark on the ice for 30 minutes. Then the cell suspension was centrifuged at 400 g for 5 minutes and the supernatant was removed. The cells were washed with PBS to remove the unbound PE-conjugated anti-human Fc antibody. The cells were resuspended with 100 μL of PBS, and the binding of the antibodies to cells was assayed by FACS.
# [8] = target: T3, tumor cells H292 (ATCC), co-incubated …; assay: flow cytometry; CFSE-labelled H292 cells co-incubated 1:20 with human red blood cells; antibody 1.111 nM
# Procedure: as §2
# [9] = target: T4, human CD47 expressed on the surface of …; assay: FACS on CHO-S cells overexpressing human CD47, PE-conjugated anti-human Fc detection, MFI
# Procedure: as §4
# [10] = target: T3, tumor cells H292 (ATCC), co-incubated …; assay: flow cytometry; CFSE-labelled H292 cells co-incubated 1:20 with human red blood cells; antibody 0.370 nM
# Procedure: as §3, §2
# [11] = target: T3, tumor cells H292 (ATCC), co-incubated …; assay: flow cytometry; CFSE-labelled H292 cells co-incubated 1:20 with human red blood cells; antibody 0.123 nM
# Procedure: as §2
# h CD47 (Acrobiosystems) = target: T5, h CD47 (Acrobiosystems) (human, UniProt Q08722 19-139); assay: ForteBio Octet BLI; antibody loaded on AHC sensor, h CD47 100 nM in solution
# T5 construct: Bought soluble antigen; also called CD47 protein in solution
# Procedure: The anti-human IgG Fc biosensor AHC was immersed in each well containing the antibody solution, and immersed at room temperature for 600 seconds to load the samples. The sensor was then washed in SD buffer until it returned to the baseline, and then immersed in a well containing 100 μL of the antigen solution to monitor the association of the antibody with the antigen. The sensor was then transferred to a well containing 100 ul of SD buffer to monitor the antibody dissociation. The rotation speed was 400 rpm and the temperature was 30° C. The background-corrected association and dissociation curves were plotted by the Octet analysis software (ForteBio) to generate the association (k_{∞}) rate constant and dissociation (kdis) rate constant, which are then used to calculate the equilibrium dissociation constant (KD).
# [12] = target: T3, tumor cells H292 (ATCC), co-incubated …; assay: flow cytometry; CFSE-labelled H292 cells co-incubated 1:20 with human red blood cells; antibody 0.014 nM
# Procedure: as §3, §2
# [13] = target: T6, human 4-1BB expressed on the surface of cells (CHO-S-4-1BB cells) (human, UniProt Q07011 24-255); assay: FACS on CHO-S cells overexpressing human 4-1BB, PE-conjugated anti-human Fc detection, MFI
# T6 construct: whole, on cells; also called CHO-S cells overexpressing 4-1BB; CD137
# [14] = target: T1, human PD-L1 expressed on the surface of …; assay: FACS on CHO-S cells overexpressing human PD-L1, PE-conjugated anti-human Fc detection, MFI; remark: listed apart in the source
# Procedure: as §1
# T1 sequence (Q9NZQ7 19-290): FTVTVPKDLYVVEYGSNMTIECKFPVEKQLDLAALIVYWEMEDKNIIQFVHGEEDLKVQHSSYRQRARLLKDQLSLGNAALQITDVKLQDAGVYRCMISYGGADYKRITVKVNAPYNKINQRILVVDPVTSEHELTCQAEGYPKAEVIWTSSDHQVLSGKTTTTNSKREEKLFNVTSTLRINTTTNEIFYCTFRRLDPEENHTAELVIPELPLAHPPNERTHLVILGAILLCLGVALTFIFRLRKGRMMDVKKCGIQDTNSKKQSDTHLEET
# T6 sequence (Q07011 24-255): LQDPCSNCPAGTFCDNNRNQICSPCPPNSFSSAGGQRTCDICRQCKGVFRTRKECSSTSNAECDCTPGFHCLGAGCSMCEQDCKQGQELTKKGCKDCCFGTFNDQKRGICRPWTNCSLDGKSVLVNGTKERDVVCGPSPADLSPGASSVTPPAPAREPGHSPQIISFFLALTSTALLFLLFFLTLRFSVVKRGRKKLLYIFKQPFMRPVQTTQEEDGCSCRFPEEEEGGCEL
binder,measurement,setting,value
B1,EC50 (read off the curve),[1],~1 nM
same,EC50 (read off the curve),[2],~1 nM
B2,proportion of antibody binding to H292 cells,[3],82%
same,EC50 (read off the curve),[4],~2 nM
same,proportion of antibody binding to H292 cells,[5],12.1%
same,proportion of antibody binding to H292 cells,[6],12.5%
same,EC50 (read off the curve),[7],~3 nM
same,proportion of antibody binding to H292 cells,[8],23%
same,EC50 (read off the curve),[9],~2 nM
same,proportion of antibody binding to H292 cells,[10],44.5%
same,proportion of antibody binding to H292 cells,[11],88.5%
same,Kd,h CD47 (Acrobiosystems),1.31 nM
same,koff,h CD47 (Acrobiosystems),0.00155 s⁻¹
same,kon,h CD47 (Acrobiosystems),1.18e+06 M⁻¹ s⁻¹
same,proportion of antibody binding to H292 cells,[12],14.9%
B3,proportion of antibody binding to H292 cells,[3],46.3%
same,EC50 (read off the curve),[4],~3 nM
same,proportion of antibody binding to H292 cells,[5],13.2%
same,proportion of antibody binding to H292 cells,[6],11.3%
same,proportion of antibody binding to H292 cells,[8],41%
same,EC50 (read off the curve),[9],~2 nM
same,proportion of antibody binding to H292 cells,[10],61.6%
same,proportion of antibody binding to H292 cells,[11],83.2%
same,Kd,h CD47 (Acrobiosystems),1.07 nM
same,koff,h CD47 (Acrobiosystems),0.00128 s⁻¹
same,kon,h CD47 (Acrobiosystems),1.19e+06 M⁻¹ s⁻¹
same,proportion of antibody binding to H292 cells,[12],1.41%
B4,EC50 (read off the curve),[13],~5 nM
same,EC50 (read off the curve),[14],~2 nM
B5,binding result,[9],no binding (tested: about 300 nM)
B6,EC50 (read off the curve),[13],~1 nM
B7,EC50 (read off the curve),[2],~0.5 nM
